Source: patent EP2213302A2 (Genentech, Inc., dated 2010)

Molecular target: T1, DR4 ECD immunoadhesin (human, UniProt O00220 24-218)
T1 construct: also called DR4-IgG; DR4 ECD-IgG; not shown: CH1, hinge and Fc region of human immunoglobulin G1 heavy chain
Experiment: KinExA equilibrium, antibody in solution with DR4-IgG, DR4-IgG beads

T1 sequence (O00220 other isoform, or with tags, fused parts or gaps): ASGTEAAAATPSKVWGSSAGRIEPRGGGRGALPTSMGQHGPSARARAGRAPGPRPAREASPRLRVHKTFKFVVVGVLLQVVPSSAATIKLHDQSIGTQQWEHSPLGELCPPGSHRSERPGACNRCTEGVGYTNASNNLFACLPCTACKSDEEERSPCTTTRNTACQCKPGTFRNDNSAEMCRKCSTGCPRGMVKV

B1: 4H6.17.8 anti-DR4 monoclonal antibody (murine) (antibody, V domains shown)
VH: QVQLKESGPGLVAPSQSLSITCTVSGFSLTSYGVHWVRQPPGKGLEWLGVIWAVGSTNYNSALMSRLSISKDNSKSQVFLKMNSLQTDDTAMYYCAREGEFDYYGSSLLSYHSMNFWGQGTSVTVS
VL: DIQMTQTTSSLSASLGDRVTISCRASQDISNYLNWYQRKPDGTVKLLIYYTSRLHSGVPSRFSGSGSGTDYSLTISNLEQEDIATYFCQQGNTLPFTFGSATKLELT
notes: Murine IgG1 from hybridoma ATCC HB-12455; only the variable domains apply here; the listing has Xaa at 20)
In the case of B1, the Kd is reported as 5 pM.
